Reference: US6458539, “Photoselection of nucleic acid ligands” (Somalogic, Inc.)

Assays:
[1] = biological target: PDGF (platelet derived growth factor) (UniProt P01127); test: filter; settings: 5-bromo-2'-deoxyuridine (BrdU) substituted for T
[2] = biological target: PDGF (platelet derived growth factor) (UniProt P01127); settings: 5-bromo-2'-deoxyuridine (BrdU) substituted for T; photocrosslinking rate, 308 nm
[3] = biological target: T1, bFGF(155) (basic fibroblast growth factor, FGF2) (Homo sapiens, UniProt P09038 SEQ:1-155); test: filter; 1xPBS, 2 mM MgCl2, 0.01% HSA, 1 mM DTT, 37 C; Table 7 gives a different KD of 5.3e-9 M; Table 2 prints CACCC where SEQ 70 has CAGCC; settings: tags: expressed in E. coli; Bachem California lot SN 433; label: 5'-32P
T1 sequence (P09038 134-288): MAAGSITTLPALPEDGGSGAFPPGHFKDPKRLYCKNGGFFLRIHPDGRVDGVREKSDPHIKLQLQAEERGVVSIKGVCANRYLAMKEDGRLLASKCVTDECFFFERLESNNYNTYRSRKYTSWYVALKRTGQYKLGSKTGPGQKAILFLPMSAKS
Experimental: (§1) Nitrocellulose filter binding was used to assess ligand affinity for bFGF_{(155)}. This was accomplished by first preparing 2,000 cpm/30 μL of 5'-^32P-radiolabeled material (≈1–5 fmol) of each sequence by dilution with 1×crosslink binding buffer (XLBB) (1×PBS/2 mM MgCl_2/0.01% HSA/1.0 mM dithiothreitol (DTT)) to give 2×DNA. Each 2×oligonucleotide sample was mixed with 30 μL of each bFGF_{(155)} concentration to be evaluated in a 96 well tray. bFGF_{(155)} concentrations were prepared by serial dilution with 1×XLBB. After incubation at 37° C. for 15 minutes, a multi-pipeter was used to load 40 μL of each DNA/bFGF_{(155)} mixture onto a pre-washed Gibco nitrocellulose binding curve apparatus followed by washing with a dissociation wash buffer. Bound DNA was then measured by phosphorimage and a binding curve for the percent bound DNA vs. [bFGF] was calculated by Kaleidograph ver. 3.09 software (Synergy Software Co., Reading, Pa).

[4] = biological target: VEGF (vascular endothelial growth factor) (UniProt P15692-4 P15692-4:27-191); test: filter; 1xPBS, 2 mM MgCl2, 37 C; settings: tags: R&D Systems; chain copies: 2; label: 5'-32P
VEGF (vascular endothelial growth factor), sequence (P15692 other isoform, or with tags, fused parts or gaps): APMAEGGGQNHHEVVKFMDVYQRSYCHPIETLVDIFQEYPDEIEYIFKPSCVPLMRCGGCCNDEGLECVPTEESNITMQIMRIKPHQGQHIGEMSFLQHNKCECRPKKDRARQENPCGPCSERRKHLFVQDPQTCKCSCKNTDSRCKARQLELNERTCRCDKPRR

[5] = biological target: T1, bFGF(155) (basic fibroblast growth …); test: filter; 1xPBS, 2 mM MgCl2, 0.01% HSA, 1 mM DTT, 37 C; Table 7 gives a different KD of 1.3e-10 M; settings: tags: expressed in E. coli; Bachem California lot SN 433; label: 5'-32P
Experimental: as §1

PDGF (platelet derived growth factor), sequence (P01127 82-190): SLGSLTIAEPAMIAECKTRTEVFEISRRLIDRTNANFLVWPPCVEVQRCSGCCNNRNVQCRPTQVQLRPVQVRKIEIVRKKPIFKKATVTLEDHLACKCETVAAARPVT

Which Kd ([1]; 1500-fold weaker than bFGF (Table 6), Table 3 states relative KD >1000) does the source give for “GGGAGGACGATGCGGGCGAAGGCACACCGAGTTCATAGTATCCCACAGACGACGAGCGGGA [06.15]” here?
Its Kd is 200 nM.

What about the activity [2] of the same molecule?
Its activity is 65000 M⁻¹ s⁻¹.

Which results are given for “GGGAGGACGATGCGGTGACGTAAGAGTGTAATCGATGCAGCCTGGCAGACGACGAGCGGGA [06.50]”?
Kd ([1]; 53-fold weaker than bFGF): 280 nM; activity [2]: 61000 M⁻¹ s⁻¹

B1: 06.50 (ssDNA)
DNA: GGGAGGACGATGCGGTGACGTAAGAGTGTAATCGATGCAGCCTGGCAGACGACGAGCGGGA
modifications: 5-bromo-2'-deoxyuridine (BrdU) substituted for T
Which Kd [3] does the source give for B1 here?
The Kd was 0.56 nM.

B2: 06.15 (ssDNA)
DNA: GGGAGGACGATGCGGGCGAAGGCACACCGAGTTCATAGTATCCCACAGACGACGAGCGGGA
modifications: 5-bromo-2'-deoxyuridine (BrdU) substituted for T
What does the source list for B2?
binding signal [4]: > 1000 fold KD relative to bFGF; Kd [5]: 0.016 nM
